# Test results taken from publication PMC12375107 (Cell Death & Disease, 2025).
# B1: CAD protein (SPR) (enzyme, human, UniProt O76075 1-338, looked up)
# chain: MLQKPKSVKLRALRSPRKFGVAGRSCQEVLRKGCLRFQLPERGSRLCLYEDGTELTEDYFPSVPDNAELVLLTLGQAWQGYVSDIRRFLSAFHEPQVGLIQAAQQLLCDEQAPQRQRLLADLLHNVSQNIAAETRAEDPPWFEGLESRFQSKSGYLRYSCESRIRSYLREVSSYPSTVGAEAQEEFLRVLGSMCQRLRSMQYNGSYFDRGAKGGSRLCTPEGWFSCQGPFDMDSCLSRHSINPYSNRESRILFSTWNLDHIIEKKRTIIPTLVEAIKEQDGREVDWEYFYGLLFTSENLKLVHIVCHKKTTHKLNCDPSRIYKPQTRLKRKQPVRKRQ
# notes: Probably the recombinant protein from E. coli of the GST pull-down
# Target: T1, STING protein (SPR) (human, UniProt Q86WV6 1-379)
# T1 construct: STING, protein injected as analyte; Probably the recombinant protein from E. coli of the GST pull-down
# Assay: SPR; Biacore 8K; CAD captured on sensor chip CM5; STING injected at increasing concentrations for 2 min, dissociation 2 min in running buffer; equilibrium constants by the evaluation software
# Conditions: both partners purified
# T1 sequence (Q86WV6 whole entry): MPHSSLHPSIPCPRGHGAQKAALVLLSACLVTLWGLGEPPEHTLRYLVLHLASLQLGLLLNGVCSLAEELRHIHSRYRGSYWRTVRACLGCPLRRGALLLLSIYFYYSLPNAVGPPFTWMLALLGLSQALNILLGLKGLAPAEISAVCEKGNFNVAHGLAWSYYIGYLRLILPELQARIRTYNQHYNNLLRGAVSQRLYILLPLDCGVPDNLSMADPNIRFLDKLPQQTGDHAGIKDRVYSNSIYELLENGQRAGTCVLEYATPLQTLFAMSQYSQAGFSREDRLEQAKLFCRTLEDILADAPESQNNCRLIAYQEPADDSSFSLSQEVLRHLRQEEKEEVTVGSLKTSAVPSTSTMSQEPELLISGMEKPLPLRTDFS
binder,measurement,value
B1,Kd,0.993 µM
